Assay results taken from patent US20260242839A1, “GLYCOSIDE PRODUCT BIOSYNTHESIS AND RECOVERY” (Manus Bio Inc., priority 2023, published 2026).
Changes are numbered by the printed parent chain. Numbers in names are those of the source. Where “and” joins values, the source holds several entries; their conditions need not be identical. Equal values may be shown once.

B1: V397S: mutation to UGT enzyme of SEQ ID NO: 13 (protein)
chain: MATKGSSGMSLAERFWLTLSRSSLVVGRSCVEFEPETVPLLSTLRGKPITFLGLMPPLHEGRREDGEDATVRWLDAQPAKSVVYVALGSEVPLGVEKVHELALGLELAGTRFLWALRKPTGVSDADLLPAGFEERTRGRGVVATRWVPQMSILAHAAVGAFLTHCGWNSTIEGLMFGHPLIMLPIFGDQGPNARLIEAKNAGLQVARNDGDGSFDREGVAAAIRAVAVEEESSKVFQAKAKKLQEIVADMACHERYIDGFIQQLRSYKDDSGYSSSYAAAAGMHVVICPWLAFGHLLPCLDLAQRLASRGHRVSFVSTPRNISRLPPVRPALAPLVAFVALPLPRVEGLPDGAESTNDVPHDRPDMVELHRRAFDGLAAPFSEFLGTACADWVIVDSFHHWAAAAALEHKVPCAMMLLGSAEMIASIADERLEHAETESPAAAGQGRPAAAPTFEVARMKLIR
B2: S20E: mutation to UGT enzyme of SEQ ID NO: 13 (protein)
chain: B1 chain with S20E, S397V
B3: A451L: mutation to UGT enzyme of SEQ ID NO: 13 (protein)
chain: B1 chain with S397V, A451L
B4: V456S: mutation to UGT enzyme of SEQ ID NO: 13 (protein)
chain: B1 chain with S397V, V456S
B5: M55L: mutation to UGT enzyme of SEQ ID NO: 13 (protein)
chain: B1 chain with M55L, S397V
B6: T453R: mutation to UGT enzyme of SEQ ID NO: 13 (protein)
chain: B1 chain with S397V, T453R
B7: T453K: mutation to UGT enzyme of SEQ ID NO: 13 (protein)
chain: B1 chain with S397V, T453K
B8: G5N: mutation to UGT enzyme of SEQ ID NO: 13 (protein)
chain: B1 chain with G5N, S397V
B9: V397C: mutation to UGT enzyme of SEQ ID NO: 13 (protein)
chain: B1 chain with S397C
B10: V456M: mutation to UGT enzyme of SEQ ID NO: 13 (protein)
chain: B1 chain with S397V, V456M
B11: V456W: mutation to UGT enzyme of SEQ ID NO: 13 (protein)
chain: B1 chain with S397V, V456W
B12: A451T: mutation to UGT enzyme of SEQ ID NO: 13 (protein)
chain: B1 chain with S397V, A451T
B13: K99F: mutation to UGT enzyme of SEQ ID NO: 15 (protein)
chain: MARRTKNSSGMSLAERFWLTLSRSSLVVGRSCVEFEPETVPLLSTLRGKPITFLGLMPPLPEGRREDGEDATVRWLDAQPAKSVVYVALGSEVPLGVEFVHELALGLELAGTRFLWALRKPTGVSDADLLPAGFEERTRGRGVVATRWVPQMSILAHAAVGAFLTHCGWNSTIEGLMFGHPLIMLPITGDQGPNARLIEAKNAGLQVARNDGDGSFDREGVAAAIRAVAVEEESSKVFQEKAKKLQEIVADMACHERYIDGFIQQLRSYKDDSGYSSSYAAAAGMHVVICPWLAFGHLLPCLDLAQRLASRGHRVSFVSTPRNISRLPPVRPALAPLVAFVALPLPRVEGLPDGAESTNDVPHDRPDMVELHRRAFDGLAAPFSEFLGTACADWVIVDSFHHWAAAAALEHKVPCAMMFLGSAEMIASIADERLEHAETESPAAAGQGRPAAAPTFEVARMKLIR
B14: L298F: mutation to UGT enzyme of SEQ ID NO: 15 (protein)
chain: B13 chain with F99K, L298F
B15: G96M: mutation to UGT enzyme of SEQ ID NO: 15 (protein)
chain: B13 chain with G96M, F99K
B16: G189Y: mutation to UGT enzyme of SEQ ID NO: 15 (protein)
chain: B13 chain with F99K, G189Y
B17: A81K: mutation to UGT enzyme of SEQ ID NO: 15 (protein)
chain: B13 chain with A81K, F99K
B18: L205Y: mutation to UGT enzyme of SEQ ID NO: 15 (protein)
chain: B13 chain with F99K, L205Y
B19: M152A_S153A: SEQ ID NO: 15 with mutations M152A, S153A (protein)
chain: B13 chain with F99K, M152A, S153A
B20: A81G: mutation to UGT enzyme of SEQ ID NO: 15 (protein)
chain: B13 chain with A81G, F99K
B21: P442G: mutation to UGT enzyme of SEQ ID NO: 15 (protein)
chain: B13 chain with F99K, P442G
B22: K99E: mutation to UGT enzyme of SEQ ID NO: 15 (protein)
chain: B13 chain with F99E
B23: P442D: mutation to UGT enzyme of SEQ ID NO: 15 (protein)
chain: B13 chain with F99K, P442D
B24: A451R: mutation to UGT enzyme of SEQ ID NO: 15 (protein)
chain: B13 chain with F99K, A451R
B25: S310T: mutation to UGT enzyme of SEQ ID NO: 15 (protein)
chain: B13 chain with F99K, S310T
B26: M425S: mutation to UGT enzyme of SEQ ID NO: 15 (protein)
chain: B13 chain with F99K, M425S

Legend:
steviol glycoside [1] = assay: steviol glycoside bioconversion by E. coli expressing individual mutations of UGT SEQ ID NO: 13; assay type: cell-based; settings: fold improvement of % conversion vs parent UGT SEQ ID NO: 13; stevia leaf extract and glucose fed; 37° C., 48 hr
Description: A UGT enzyme referred to as MbUGT1,2 is described in U.S. Pat. No. 10,743,567, which is hereby incorporated by reference. An engineered version of MbUGT1,2 (SEQ ID NO: 13) is described in US 2020/0087692, which is hereby incorporated by reference in its entirety. The UGT enzyme of SEQ ID NO: 13 was further engineered to improve activity for steviol glycoside bioconversion. […] Fold improvement is with respect to % steviol glycoside conversion of the parent UGT enzyme (SEQ ID NO: 13). SEQ ID NO: 14 has the following mutations from SEQ ID NO: 13: G5N, F186T, V397S. Stevia leaf extract and glucose were fed to the bioconversion strains. Bioconversion took place at 37° C. for 48 hr. Data were quantified by reverse phase LC DAD to quantify conversion of steviol glycosides.
(§1) Fold improvement (FI) is with respect to % steviol glycoside conversion.

steviol glycoside [2] = assay: steviol glycoside bioconversion by E. coli expressing individual mutations of UGT SEQ ID NO: 15; assay type: cell-based; settings: fold improvement of % conversion vs parent UGT SEQ ID NO: 15; stevia leaf extract and glucose fed; 37° C., 48 hr
Procedure: Fold improvement is with respect to % steviol glycoside conversion of the parent UGT enzyme of SEQ ID NO: 15. SEQ ID NO: 16 has the following mutations from SEQ ID NO: 15: M152A, S153A. Stevia leaf extract and glucose were fed to the bioconversion strains. Bioconversion took place at 37° C. for 48 hr. Data were quantified by reverse phase LC DAD to quantify conversion of steviol glycosides.
as §1

| Molecule | FI %Stevioside→rebE (steviol glycoside [1]) | FI %rebA→rebD (steviol glycoside [1]) | FI % Stevioside −> rebE (steviol glycoside [2]) | FI % rebA −> rebD (steviol glycoside [2]) |
| --- | --- | --- | --- | --- |
| B1 | 3.8 | 3.4 |  |  |
| B2 | 1.2 | 1.1 |  |  |
| B3 | 1.4 | 1.5 |  |  |
| B4 | 1.5 | 1.6 |  |  |
| B5 | 1.1 | 1.0 |  |  |
| B6 | 1.4 | 1.6 |  |  |
| B7 | 1.4 | 1.6 |  |  |
| B8 | 1.5 | 1.5 |  |  |
| B9 | 1.9 | 1.9 |  |  |
| B10 | 1.5 | 1.5 |  |  |
| B11 | 1.2 | 1.2 |  |  |
| B12 | 1.8 | 2.0 |  |  |
| B13 |  |  | 1.08 | 1.08 |
| B14 |  |  | 1.01 | 0.97 |
| B15 |  |  | 1.03 and 1.10 | 1.01 and 1.10 |
| B16 |  |  | 1.04 | 1.04 |
| B17 |  |  | 1.02 and 1.01 | 1.04 and 1.02 |
| B18 |  |  | 1.03 | 1.04 |
| B19 |  |  | 1.32 | 1.26 |
| B20 |  |  | 1.09 | 1.04 |
| B21 |  |  | 1.01 | 1.01 |
| B22 |  |  | 1.02 | 1.03 |
| B23 |  |  | 1.18 | 1.19 |
| B24 |  |  | 0.99 | 1.02 |
| B25 |  |  | 1.04 | 1.04 |
| B26 |  |  | 1.03 | 1.02 |
